Each sequence was assayed on Escherichia coli TOP10 (assay: shrunken log2 fold change of peptide-encoding DNA abundance (4.5 h post-induction vs induction); higher = less antimicrobial activity (less host growth inhibition)). Settings: time post-induction: 4.5 h; library: site-saturation at positions 5, 18, 19, 20.
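Further: peptides expressed intracellularly from a pBAD plasmid library in pooled LB shake-flask culture, induced with 0.3% L-arabinose, DNA abundance read by NGS, three biological replicates, DESeq2 with apeglm shrinkage.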

| Sequence | shrunken log2 fold change |
| --- | --- |
| RRIRFRPPRLPRPRPRPFTVPRP | -0.246 |
| RRIRHRPPRLPRPRPRPSCEPRP | -0.569 |
| RRIRCRPPRLPRPRPRPKTFPRP | -0.138 |
| RRIRWRPPRLPRPRPRPIHHPRP | -0.332 |
| RRIRRRPPRLPRPRPRPQNFPRP | -0.149 |
| RRIRPRPPRLPRPRPRPEGSPRP | 0.0654 |
| RRIRMRPPRLPRPRPRPEFKPRP | 0.335 |
| RRIRYRPPRLPRPRPRPPVGPRP | 0.0196 |
| RRIRERPPRLPRPRPRPVMTPRP | -0.221 |
| RRIRCRPPRLPRPRPRPNWEPRP | 0.0349 |
| RRIRLRPPRLPRPRPRPDCLPRP | -0.0212 |
| RRIRERPPRLPRPRPRPMPHPRP | -0.083 |
| RRIRPRPPRLPRPRPRPNYKPRP | -0.537 |
| RRIRGRPPRLPRPRPRPWWQPRP | 0.644 |
| RRIRCRPPRLPRPRPRPAINPRP | -0.606 |
| RRIRIRPPRLPRPRPRPVFFPRP | -0.107 |
| RRIRTRPPRLPRPRPRPPNPPRP | 0.442 |
| RRIRMRPPRLPRPRPRPEAFPRP | 2.91 |
| RRIRYRPPRLPRPRPRPHWAPRP | -0.24 |
| RRIRSRPPRLPRPRPRPHGKPRP | -0.18 |
| RRIRVRPPRLPRPRPRPDLSPRP | -0.011 |
| RRIRVRPPRLPRPRPRPWHTPRP | -0.33 |
| RRIRARPPRLPRPRPRPMCTPRP | -0.0696 |
| RRIRTRPPRLPRPRPRPYSCPRP | -0.0718 |
| RRIRHRPPRLPRPRPRPLDDPRP | -0.172 |

| Sequence | shrunken log2 fold change |
| --- | --- |
| RRIRDRPPRLPRPRPRPIYMPRP | -0.106 |
| RRIRVRPPRLPRPRPRPWQQPRP | -0.097 |
| RRIRKRPPRLPRPRPRPARSPRP | 0.89 |
| RRIRRRPPRLPRPRPRPHTDPRP | -0.215 |
| RRIRHRPPRLPRPRPRPWNKPRP | -0.111 |
| RRIRPRPPRLPRPRPRPNNIPRP | -0.848 |
| RRIRGRPPRLPRPRPRPGDKPRP | 0.425 |
| RRIRFRPPRLPRPRPRPQASPRP | 0.0447 |
| RRIRRRPPRLPRPRPRPGCIPRP | 0.0498 |
| RRIRERPPRLPRPRPRPYAGPRP | -0.000921 |
| RRIRKRPPRLPRPRPRPDIDPRP | 2.44 |
| RRIRGRPPRLPRPRPRPHKCPRP | -0.111 |
| RRIRWRPPRLPRPRPRPEECPRP | 0.158 |
| RRIRPRPPRLPRPRPRPATNPRP | -0.105 |
| RRIRCRPPRLPRPRPRPFAAPRP | 0.308 |
| RRIRNRPPRLPRPRPRPLYIPRP | -0.826 |
| RRIRNRPPRLPRPRPRPNTPPRP | -0.543 |
| RRIRKRPPRLPRPRPRPWSGPRP | 0.104 |
| RRIRGRPPRLPRPRPRPKIVPRP | 0.278 |
| RRIRMRPPRLPRPRPRPGQEPRP | 0.605 |
| RRIRVRPPRLPRPRPRPPTHPRP | 0.117 |
| RRIRLRPPRLPRPRPRPFNPPRP | -0.349 |
| RRIRRRPPRLPRPRPRPWGMPRP | 0.137 |
| RRIRRRPPRLPRPRPRPTCYPRP | -0.242 |
| RRIRFRPPRLPRPRPRPMKYPRP | -0.664 |

| Sequence | shrunken log2 fold change |
| --- | --- |
| RRIRLRPPRLPRPRPRPDPNPRP | 0.168 |
| RRIRTRPPRLPRPRPRPYMMPRP | 0.0264 |
| RRIRSRPPRLPRPRPRPVSIPRP | -0.319 |
| RRIRRRPPRLPRPRPRPPACPRP | 0.619 |
| RRIRIRPPRLPRPRPRPFWWPRP | 0.0783 |
| RRIRGRPPRLPRPRPRPWKNPRP | -0.138 |
| RRIRCRPPRLPRPRPRPFDTPRP | -0.192 |
| RRIRTRPPRLPRPRPRPVLIPRP | 0.233 |
| RRIRARPPRLPRPRPRPENKPRP | 0.31 |
| RRIRWRPPRLPRPRPRPCSWPRP | 0.0533 |
| RRIRCRPPRLPRPRPRPRWIPRP | 0.0454 |
| RRIRHRPPRLPRPRPRPYNKPRP | -0.681 |
| RRIRWRPPRLPRPRPRPETWPRP | 0.502 |
| RRIRARPPRLPRPRPRPARSPRP | 0.31 |
| RRIRTRPPRLPRPRPRPRVAPRP | 0.258 |
| RRIRQRPPRLPRPRPRPMENPRP | -0.0199 |
| RRIRNRPPRLPRPRPRPTAGPRP | 0.0608 |
| RRIRDRPPRLPRPRPRPPNQPRP | 0.317 |
| RRIRKRPPRLPRPRPRPLSSPRP | 0.115 |
| RRIRCRPPRLPRPRPRPGHRPRP | -0.0213 |
| RRIRMRPPRLPRPRPRPSVRPRP | -0.00857 |
| RRIRARPPRLPRPRPRPMPTPRP | 0.866 |
| RRIRPRPPRLPRPRPRPSTGPRP | -0.263 |
| RRIRRRPPRLPRPRPRPRHPPRP | 0.524 |
| RRIRWRPPRLPRPRPRPYPWPRP | -0.156 |
